Experimental data from the supplement of paper PMC10724198.
± gives the standard deviation of the averaged measurements.

test system: Saccharomyces cerevisiae; assay: protein stability index of tFT-peptide fusion (C-terminal peptide) (PSI (0-1 scale)); higher = more stable (slower turnover); details: genetic background: wild type; temperature: 30 C
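Also: PSI is a weighted mean of sequencing reads over stability bins, variants kept only with over 10 reads, mCherry proximal and sfGFP distal, peptide attached via GGGS linker.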

Question: How did the protein stability index turn out when SRLFEFFISRNV was run?
Answer: 0.706 ± 0.013

Question: Which protein stability index does the source give for DTDIHRKRTRQV here?
Answer: 0.7 ± 0.037

Question: Which protein stability index does the source give for WGMVFQVFRRRN here?
Answer: 0.582 ± 0.018

Question: RGRASVIWGGPG was tested. Which protein stability index did it give?
Answer: 0.659 ± 0.086

Question: How did the protein stability index turn out when PSVPSPPPPSPP was run?
Answer: 0.683 ± 0.024

Question: With TLVNPFYRRFNL as the sequence, how does the protein stability index read?
Answer: 0.739 ± 0.03

Question: Which protein stability index does the source give for STAPQDPARPSE here?
Answer: 0.707 ± 0.028

Question: For WCLGLGCVWGGW, which protein stability index is on record?
Answer: 0.779 ± 0.092

Question: PCPPLPGILSSL was tested. Which protein stability index did it give?
Answer: 0.674 ± 0.035

Question: VKSSIGWLKVGF was tested. Which protein stability index did it give?
Answer: 0.671 ± 0.15

Question: PPPPSRPPPPRL was tested. Which protein stability index did it give?
Answer: 0.789 ± 0.021

Question: How did the protein stability index turn out when RNKKKAKKEENR was run?
Answer: 0.664 ± 0.048

Question: Which protein stability index does the source give for GDFFQRVVGGGG here?
Answer: 0.733 ± 0.16

Question: For NNYPHSEKCLKE, which protein stability index is on record?
Answer: 0.643 ± 0.009

Question: PPQFIYYPLPLF was tested. Which protein stability index did it give?
Answer: 0.616 ± 0.063

Question: GTATINQISSPQ was tested. Which protein stability index did it give?
Answer: 0.673 ± 0.028

Question: With KQDTRRHIHTTK as the sequence, how does the protein stability index read?
Answer: 0.735 ± 0.092

Question: With LLPGPYPLLSDN as the sequence, how does the protein stability index read?
Answer: 0.732 ± 0.025

Question: PRKVNAHKDTCH was tested. Which protein stability index did it give?
Answer: 0.693 ± 0.022

Question: For WGRLRFFDCSGF, which protein stability index is on record?
Answer: 0.605 ± 0.014

Question: With IKTCANGPPHSM as the sequence, how does the protein stability index read?
Answer: 0.64 ± 0.06

Question: With PALPAPFLSSPH as the sequence, how does the protein stability index read?
Answer: 0.6737 ± 0.00099

Question: With TNSPTVSGCLQQ as the sequence, how does the protein stability index read?
Answer: 0.716 ± 0.07

Question: For GWVVSGIFGRCC, which protein stability index is on record?
Answer: 0.689 ± 0.013

Question: Which protein stability index does the source give for DIIRKKNKQGRI here?
Answer: 0.702 ± 0.035

Question: For VLSFALGSAGGR, which protein stability index is on record?
Answer: 0.678 ± 0.069

Question: With YYAMGFEKSISS as the sequence, how does the protein stability index read?
Answer: 0.682 ± 0.031

Question: With TCHPLCSSSADR as the sequence, how does the protein stability index read?
Answer: 0.712 ± 0.039

Question: EKEKKKVHRQEE was tested. Which protein stability index did it give?
Answer: 0.712 ± 0.059

Question: For EWYRNNFFFLDL, which protein stability index is on record?
Answer: 0.772 ± 0.02

Question: With IRKKNKEKIKNQ as the sequence, how does the protein stability index read?
Answer: 0.691 ± 0.25

Question: For DSGVAVVLVGCV, which protein stability index is on record?
Answer: 0.529 ± 0.013

Question: PVTPHESVVPSL was tested. Which protein stability index did it give?
Answer: 0.686 ± 0.02

Question: With SPPCRTYFAECD as the sequence, how does the protein stability index read?
Answer: 0.713 ± 0.053

Question: With PPPSRSLPPRRL as the sequence, how does the protein stability index read?
Answer: 0.661 ± 0.03

Question: KFRFPVDLIFET was tested. Which protein stability index did it give?
Answer: 0.73 ± 0.015

Question: With TMFTISGWPLFG as the sequence, how does the protein stability index read?
Answer: 0.633 ± 0.044

Question: PPRPPAPHLSGI was tested. Which protein stability index did it give?
Answer: 0.681 ± 0.039

Question: Which protein stability index does the source give for SGRSSQNHRCWI here?
Answer: 0.684 ± 0.012

Question: For CTRCKRDDYNIE, which protein stability index is on record?
Answer: 0.6803 ± 0.006

Question: With VIGIRNGADMSI as the sequence, how does the protein stability index read?
Answer: 0.667 ± 0.013

Question: How did the protein stability index turn out when LFGAVGGGVEVG was run?
Answer: 0.668 ± 0.12

Question: How did the protein stability index turn out when SARPTVNRPARN was run?
Answer: 0.6933 ± 0.0049

Question: MDTYIQKKKYIK was tested. Which protein stability index did it give?
Answer: 0.69 ± 0.0099

Question: GRRAWWQQPDDS was tested. Which protein stability index did it give?
Answer: 0.774 ± 0.099

Question: LFLGSFSRSLWP was tested. Which protein stability index did it give?
Answer: 0.755 ± 0.015

Question: KLEEKRKEMERK was tested. Which protein stability index did it give?
Answer: 0.7093 ± 0.007

Question: With CVLVVGVPAGGG as the sequence, how does the protein stability index read?
Answer: 0.611 ± 0.028

Question: How did the protein stability index turn out when VMGAGGRTVAEW was run?
Answer: 0.719 ± 0.019

Question: How did the protein stability index turn out when PPLLPPGPPSPP was run?
Answer: 0.588 ± 0.01

Question: For GRGGAGFRGGIE, which protein stability index is on record?
Answer: 0.6707 ± 0.0044

Question: PSSPSTRPRFPL was tested. Which protein stability index did it give?
Answer: 0.68 ± 0.083

Question: With AGGWLRGGLGVG as the sequence, how does the protein stability index read?
Answer: 0.7 ± 0.053

Question: PQCSLPLPFTLL was tested. Which protein stability index did it give?
Answer: 0.61363 ± 0.00047

Question: For VRITRPFKAPTP, which protein stability index is on record?
Answer: 0.711 ± 0.0056

Question: VCFSPVARRDVY was tested. Which protein stability index did it give?
Answer: 0.771 ± 0.049

Question: With TELRRRVGYVAL as the sequence, how does the protein stability index read?
Answer: 0.663 ± 0.032

Question: Which protein stability index does the source give for LGSASRQLARPR here?
Answer: 0.66 ± 0.12

Question: Which protein stability index does the source give for HSCLVRSDPPPS here?
Answer: 0.704 ± 0.12

Question: How did the protein stability index turn out when PPGPSVPPHRPP was run?
Answer: 0.754 ± 0.049

Question: IEPTFDGSLCLG was tested. Which protein stability index did it give?
Answer: 0.7 ± 0.0094

Question: With GIHLAPVCASSP as the sequence, how does the protein stability index read?
Answer: 0.71 ± 0.035

Question: Which protein stability index does the source give for PFVIKSWSYVTR here?
Answer: 0.605 ± 0.02

Question: For GRWFGGRGVGEG, which protein stability index is on record?
Answer: 0.635 ± 0.013

Question: How did the protein stability index turn out when LRGNDRLLSKRI was run?
Answer: 0.694 ± 0.022

Question: How did the protein stability index turn out when PPTPVSRSPPPA was run?
Answer: 0.665 ± 0.021

Question: How did the protein stability index turn out when GASGVYMLDAYA was run?
Answer: 0.632 ± 0.058

Question: Which protein stability index does the source give for ARRVILRANGRI here?
Answer: 0.668 ± 0.035

Question: Which protein stability index does the source give for SPPGPNQVARPP here?
Answer: 0.6873 ± 0.0057

Question: LVLTPPLLSLYP was tested. Which protein stability index did it give?
Answer: 0.683 ± 0.0083

Question: PPPPLPLPPSLP was tested. Which protein stability index did it give?
Answer: 0.5979 ± 0.0054

Question: With GGCVVGTGRRRY as the sequence, how does the protein stability index read?
Answer: 0.6114 ± 0.0061

Question: For PAHRRLLPWPPA, which protein stability index is on record?
Answer: 0.71 ± 0.14

Question: With RNAGIQVTGQAF as the sequence, how does the protein stability index read?
Answer: 0.704 ± 0.0079

Question: Which protein stability index does the source give for LRGVDYEQMSDP here?
Answer: 0.667 ± 0.11

Question: How did the protein stability index turn out when RSRNAHAPPLAG was run?
Answer: 0.764 ± 0.065

Question: PHLANLFTWSSC was tested. Which protein stability index did it give?
Answer: 0.66 ± 0.092

Question: Which protein stability index does the source give for CPSIVCSPTDPM here?
Answer: 0.679 ± 0.061

Question: For VGVVGGSWEVVG, which protein stability index is on record?
Answer: 0.685 ± 0.031

Question: With GTYNIGVFAPEN as the sequence, how does the protein stability index read?
Answer: 0.653 ± 0.032

Question: For RENGKIIKKRKK, which protein stability index is on record?
Answer: 0.694 ± 0.026

Question: GGRCWMCVAVTE was tested. Which protein stability index did it give?
Answer: 0.591 ± 0.019

Question: Which protein stability index does the source give for RGALQQLREHTS here?
Answer: 0.687 ± 0.055

Question: Which protein stability index does the source give for SKQGNKADGCAK here?
Answer: 0.603 ± 0.054

Question: Which protein stability index does the source give for HPGLRLENVNPQ here?
Answer: 0.702 ± 0.014

Question: Which protein stability index does the source give for FWMPKASALGAA here?
Answer: 0.655 ± 0.019

Question: How did the protein stability index turn out when PSTPRPPRPPPL was run?
Answer: 0.695 ± 0.027

Question: For GVSLREASVAAI, which protein stability index is on record?
Answer: 0.7104 ± 0.0055

Question: How did the protein stability index turn out when VVAERFADAKGS was run?
Answer: 0.653 ± 0.025

Question: How did the protein stability index turn out when SPPSPPALTPSP was run?
Answer: 0.643 ± 0.048

Question: Which protein stability index does the source give for KGRWEVRGEGRG here?
Answer: 0.64 ± 0.03

Question: PSPPPPPLPPAG was tested. Which protein stability index did it give?
Answer: 0.663 ± 0.097

Question: RGWWVLWGGGWG was tested. Which protein stability index did it give?
Answer: 0.551 ± 0.025

Question: VVRKVALVALPL was tested. Which protein stability index did it give?
Answer: 0.574 ± 0.05

Question: With RPTRPCSTPTAP as the sequence, how does the protein stability index read?
Answer: 0.78 ± 0.012

Question: Which protein stability index does the source give for PPLPPPCPLPRN here?
Answer: 0.7711 ± 0.0013

Question: For PPLPLLPSPSPL, which protein stability index is on record?
Answer: 0.753 ± 0.086

Question: PDSLHTLRPPPP was tested. Which protein stability index did it give?
Answer: 0.653 ± 0.022

Question: How did the protein stability index turn out when SSSAPSSVPPLG was run?
Answer: 0.734 ± 0.016

Question: With VLRLGFYNINKL as the sequence, how does the protein stability index read?
Answer: 0.676 ± 0.075

Question: PASYSAPVSLFI was tested. Which protein stability index did it give?
Answer: 0.7035 ± 0.002
